Format in all cases: cell-based
The target in one test is XIAP (Homo sapiens, UniProt P98170). As to the kind of experiment: Co-transfection of HeLa cells with XIAP and Smac plasmids, Western blot. Further details: expressed in transfected cells; host or cells: HeLa. To be noted: for XIAP ubiquitylation: co-transfection. Here is the method:
(§1) Transfection of cultured Cells—HeLa cells were grown in DMEM supplemented with 10% fetal bovine serum. Cells were seeded onto 6-well plates the day before transfection and transfected at 70% confluence by using Lipofectin combined with Plus reagent (Invitrogen) according to the manufacture's protocols. The IAP expression plasmids (3 μg each for c-IAP1, c-IAP2 and XIAP, and 250 ng each for Livin αand Livin β) together with 2.5 μg of Smac expression plasmids or pcDNA3.1(−) blank plasmid were used for single-well transfection in the absence of antibiotics. The cells were harvested 12 hours after the transfection and lysed with 0.5% CHAPS in 20 mM HEPES (pH 7.4), 10 mM KCl, 1 mM MgCl2 and 1 mM DTT. The lysates were centrifuged and the protein concentrations of the supernatants were quantified by the modified Bradford method (36).
(§2) Western Blot analysis—Proteins were resolved by SDS-PAGE and transferred to nitrocellulose filters. The filters were blocked with 5% milk and probed with antibodies as indicated. The signals were visualized with the enhanced chemiluminescence method.
(§3) To investigate the effect of Smac polypeptide on IAP protein levels, HeLa cells were transfected with the expression vectors for Smac and various IAPs. Briefly, HeLa cells were either transfected with IAP alone (Lane 2, 4 and 6), or together with Smac polypeptide (Lane 3, 5 and 7), or with Smac polypeptide alone (Lane 1). Equal amounts of cell lysates (7 μg) were immunoblotted with either the HRP-conjugated anti-FLAG antibody (shown in the top panel) in order to detect N-terminal 3×FLAG tagged IAPs, or with the anti-c-Myc antibody (bottom panel) to detect C-terminal c-Myc tagged Smac. The ubiquitin fusion technique was used to secure the production of mature Smac protein with the expected N-terminal AVPI motif (6, 37).
It is known that XIAP is ubiquitylated by its own E3 activity when expressed in HEK 293T cells and that this auto-ubiquitylation and subsequent degradation is stimulated by Reaper (26). In the current study, XIAP transiently expressed in HeLa cells was ubiquitylated as well; however, mono-ubiquitylation rather than poly-ubiquitylation of XIAP was the major product (see FIG. 3A). Briefly, XIAP WT or H467A mutant plasmids together with either Smac WT or ΔA, or with pcDNA3.1(−) blank plasmid, were co-transfected into the HeLa cells. As controls, HeLa cells were also transfected with either Smac WT or ΔA plasmids together with the blank p3×FLAG-CMV-7 plasmid. The transfected cells were cultivated either in the absence (see lanes 1-7 of FIG. 3A) or in the presence (see lanes 8-14 of FIG. 3A) of MG132. Equal amounts of soluble proteins (7 μg) from the transfected cells were immunoblotted with either the HRP-conjugated anti-FLAG antibody (see top panel of FIG. 3A) to detect N-terminal 3×FLAG tagged IAPs, or with the anti-c-Myc antibody (see middle panel of FIG. 3A) to detect Smac. The anti-Actin immunoblotting results were to show equal protein loading (see bottom panel of FIG. 3A).
Background: In western blotting, separated proteins are transferred to a membrane and probed.

The next test addresses T1, Livin α (Homo sapiens, UniProt Q96CA5).
T1 construct: expressed in transfected cells; host or cells: HeLa
T1 sequence (Q96CA5 1-298): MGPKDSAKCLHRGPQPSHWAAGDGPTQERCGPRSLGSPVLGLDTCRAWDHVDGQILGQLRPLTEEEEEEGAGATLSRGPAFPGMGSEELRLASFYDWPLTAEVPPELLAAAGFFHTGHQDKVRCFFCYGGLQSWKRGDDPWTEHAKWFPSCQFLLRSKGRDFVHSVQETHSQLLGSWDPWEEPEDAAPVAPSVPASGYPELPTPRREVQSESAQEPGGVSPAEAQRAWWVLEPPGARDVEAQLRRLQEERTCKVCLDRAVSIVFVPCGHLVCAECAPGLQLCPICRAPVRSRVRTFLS
Kind of test: Co-transfection of HeLa cells with Livin α and Smac plasmids, Western blot. To be noted: for auto-ubiquitylation of Livin: FIG. 3B. How it is done: as §1, §2
In the current study, Livin was also transiently expressed in HeLa cells to determine the ubiquitylation activity (see FIG. 3B). Briefly, Livin α WT or H269A mutant plasmids together with Smac WT or Smac ΔA mutant, or with pcDNA3.1(−) blank plasmid, were co-transfected into HeLa cells. As controls, HeLa cells were also transfected with either Smac WT or ΔA plasmids together with the blank p3×FLAG-CMV-7 plasmid. The transfected cells were cultivated either in the absence (see lanes 1-7 of FIG. 3B) or in the presence (see lane 8-14 of FIG. 3B) of MG132. Equal amounts of soluble proteins (7 μg) from the transfected cells were immunoblotted with either the HRP-conjugated anti-FLAG antibody (see top panel of FIG. 3B) to detect N-terminal 3×FLAG tagged IAPs, or with the anti-c-Myc antibody (see middle panel of FIG. 3B) to detect Smac. The anti-Actin immunoblotting results were to show equal protein loading (see bottom panel of FIG. 3B). […]

In a further test the target is T2, c-IAP2 (Homo sapiens, UniProt Q13489).
T2 construct: produced not only the expected full length c-IAP1 or c-IAP2; expressed in transfected cells; host or cells: HeLa
As to the kind of experiment: Co-transfection of HeLa cells with c-IAP2 and Smac plasmids, Western blot. To be noted: for ubiquitylation and degradation (E3 activity) of c-IAP2: co-transfection, FIG. 2B. How it is done: as §1, §2, §3
Because it is known that the His^588 residue in the RING finger domain is important for the IAP E3 activity (22), this residue was mutated to test whether Smac stimulated the ubiquitylation-mediated degradation of both c-IAP1 and c-IAP2. In each case, His^588 in c-IAP1 and His^574 in c-IAP2 was mutated to Ala (H588A mutant and H574A mutant, respectively) and the results are depicted in FIGS. 2A and 2B. The c-IAP1 WT or H588A mutant plasmids together with either Smac WT or Smac ΔA mutant, or with pcDNA3.1 (−) blank plasmid were co-transfected into HeLa cells (FIG. 2A). The c-IAP2 WT or H574A mutant plasmids together with either Smac WT or Smac ΔA mutant, or with pcDNA3.1 (−) blank plasmid were co-transfected into HeLa cells (FIG. 2B). As controls, HeLa cells were also transfected with either Smac WT or ΔA plasmids together with the blank p3×FLAG-CMV-7 plasmid. The transfected cells were cultivated either in the absence (see lanes 1-7 of FIGS. 2A and 2B) or in the presence (see lanes 8-14 of FIGS. 2A and 2B) of MG132. Equal amounts of soluble proteins (7 μg) from the transfected cells were immunoblotted with either the HRP-conjugated anti-FLAG antibody (see top panel of FIGS. 2A and 2B) to detect N-terminal 3×FLAG tagged IAPs, or with the anti-c-Myc antibody (see middle panel of FIGS. 2A and 2B) to detect C-terminal c-Myc tagged Smac. The anti-Actin immunoblotting results were to show equal protein loading (see bottom panel of FIGS. 2A and 2B).

Where [1] appears, read: mature Smac co-expressed, FIG. 1.

T2 sequence (Q13489 whole entry): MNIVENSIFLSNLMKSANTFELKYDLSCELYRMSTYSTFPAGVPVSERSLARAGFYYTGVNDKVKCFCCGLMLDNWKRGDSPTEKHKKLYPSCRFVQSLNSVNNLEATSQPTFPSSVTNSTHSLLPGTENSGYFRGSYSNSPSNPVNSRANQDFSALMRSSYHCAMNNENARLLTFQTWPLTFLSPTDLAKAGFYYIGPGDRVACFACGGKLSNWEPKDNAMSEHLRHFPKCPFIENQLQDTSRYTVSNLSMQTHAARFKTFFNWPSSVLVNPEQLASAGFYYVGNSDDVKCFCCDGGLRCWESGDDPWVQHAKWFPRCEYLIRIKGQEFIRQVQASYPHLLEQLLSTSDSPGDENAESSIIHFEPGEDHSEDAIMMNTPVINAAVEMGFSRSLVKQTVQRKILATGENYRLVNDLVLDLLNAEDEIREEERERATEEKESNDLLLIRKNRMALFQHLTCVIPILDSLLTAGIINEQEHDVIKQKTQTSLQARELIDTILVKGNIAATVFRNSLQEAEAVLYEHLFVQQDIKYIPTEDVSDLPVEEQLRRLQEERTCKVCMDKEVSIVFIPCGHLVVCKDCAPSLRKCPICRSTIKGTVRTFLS
XIAP, sequence (P98170 whole entry): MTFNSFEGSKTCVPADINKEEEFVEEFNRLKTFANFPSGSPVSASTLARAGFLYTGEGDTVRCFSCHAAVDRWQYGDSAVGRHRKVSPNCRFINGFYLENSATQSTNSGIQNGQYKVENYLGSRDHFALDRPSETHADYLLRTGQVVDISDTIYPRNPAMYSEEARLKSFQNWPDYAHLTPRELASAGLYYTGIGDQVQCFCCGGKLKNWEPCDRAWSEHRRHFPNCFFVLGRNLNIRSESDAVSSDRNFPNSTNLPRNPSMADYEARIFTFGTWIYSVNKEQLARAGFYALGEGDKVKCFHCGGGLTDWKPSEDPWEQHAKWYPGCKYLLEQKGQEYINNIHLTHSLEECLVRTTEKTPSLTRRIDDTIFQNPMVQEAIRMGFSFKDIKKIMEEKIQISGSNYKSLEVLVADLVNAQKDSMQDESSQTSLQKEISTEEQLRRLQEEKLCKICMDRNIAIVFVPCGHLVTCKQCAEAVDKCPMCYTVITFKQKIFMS

B1: Smac ΔA: Smac mutant lacking the initial Ala (Ala deletion mutant polypeptide), used as negative control (protein, UniProt Q9NR28 22-239, looked up, variant A1*)
Diablo IAP-binding …: LCVPVVANFKKRCFSELIRPWHKTVTIGFGVTLCVPIAQKSEPHSLSSEALMRRAVSLVTDSTSTFLSQTTYALIEAITEYTKAVYTLTSLYRQYTSLLGKMNSEEEDEVWQVIIGARAEMTSKHQEYLKLETTWMTAVGLSEMAAEAAYQTGADQASITARNHIQLVKLQVEEVHQLSRKAETKLAEAQIEELRQKTQEEGEERAESEQEAYLRED
For B1, the XIAP ubiquitylation entry in the test with XIAP (FIG. 3A) was “stimulated the auto-ubiquitylation of XIAP and Livin”. In the test with Livin α, the “auto-ubiquitylation of Livin” value is “stimulated the auto-ubiquitylation of XIAP and Livin”. Besides, the “ubiquitylation and degradation (E3 activity) of c-IAP2” value with c-IAP2 was “did not promote the E3 activity”.

B2: Smac: wild type (WT) Smac polypeptide from Homo sapiens, SEQ ID NO 1, 239 amino acids; second mitochondria-derived activator of caspase (protein, listed as Homo sapiens)
chain: MAALKSWLSRSVTSFFRYRQCLCVPVVANFKKRCFSELIRPWHKTVTIGFGVTLCAVPIAQKSEPHSLSSEALMRRAVSLVTDSTSTFLSQTTYALIEAITEYTKAVYTLTSLYRQYTSLLGKMNSEEEDEVWQVIIGARAEMTSKHQEYLKLETTWMTAVGLSEMAAEAAYQTGADQASITARNHIQLVKLQVEEVHQLSRKAETKLAEAQIEELRQKTQEEGEERAESEQEAYLRED
On to B2, for which the “level of XIAP” value with XIAP (co-expression, absence of MG132) is “negligible effect”. Moreover, the “overall amount of XIAP” value with XIAP (co-transfected Smac, FIG. 3A) is reported as “not significantly affected”. The XIAP ubiquitylation result in the test with XIAP (FIG. 3A) is given as “still promoted XIAP ubiquitylation”. The “protein level of XIAP” value with XIAP (setting [1]) is listed as “unaffected”. In the test with Livin α, the “auto-ubiquitylation of Livin” value was “effectively stimulates auto-ubiquitylation of Livin α”. The “degradation of Livin α” value with Livin α (absence of MG132, FIG. 3B) was “slightly promoted the degradation of Livin α”. Also, in the test with c-IAP2 (co-expression, absence of MG132, FIG. 2B), the “level of c-IAP2” value is “nearly non-detectable level”. The “ubiquitylation and degradation (E3 activity) of c-IAP2” value in the test with c-IAP2 was “strongly promoted the ubiquitylation and degradation of c-IAP2”. Besides, the “protein level of c-IAP2” value with c-IAP2 (setting [1]) is “significantly decreased”.
